In publication PMC8982406 one finds ratio to parent data, which are given here for 13 molecules.

Numbering of substitutions follows the chain as printed. Names and notes keep the numbering of the source.

Common to all, as to experiment: co-IP (IP: FLAG, IB: myc), blot quantification
The target in test [1] is full-length RLIM protein (wild type; mapping and mutation co-IPs) (UniProt Q9NVW2). Particulars: ZC4H2-myc + RLIM-FLAG, MG132 +; parent: 1.00.
In test [2] the target is T1, ZC4H2 (wild type; mapping and mutation co-IPs), Q9NQZ6.
T1 chain: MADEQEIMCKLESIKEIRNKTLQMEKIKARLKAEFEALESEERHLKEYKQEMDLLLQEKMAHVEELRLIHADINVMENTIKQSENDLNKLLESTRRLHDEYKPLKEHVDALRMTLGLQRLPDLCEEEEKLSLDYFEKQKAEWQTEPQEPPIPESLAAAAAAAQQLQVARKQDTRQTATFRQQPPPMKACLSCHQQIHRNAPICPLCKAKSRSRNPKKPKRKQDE
Particulars: chain shown with the change; hRLIM-myc + ZC4H2-FLAG, MG132 +, HEK293 cells; parent: 1.00.

Test [3] deals with T2, full-length RLIM protein (wild type; mapping and mutation co-IPs), Q9NVW2.
T2 chain: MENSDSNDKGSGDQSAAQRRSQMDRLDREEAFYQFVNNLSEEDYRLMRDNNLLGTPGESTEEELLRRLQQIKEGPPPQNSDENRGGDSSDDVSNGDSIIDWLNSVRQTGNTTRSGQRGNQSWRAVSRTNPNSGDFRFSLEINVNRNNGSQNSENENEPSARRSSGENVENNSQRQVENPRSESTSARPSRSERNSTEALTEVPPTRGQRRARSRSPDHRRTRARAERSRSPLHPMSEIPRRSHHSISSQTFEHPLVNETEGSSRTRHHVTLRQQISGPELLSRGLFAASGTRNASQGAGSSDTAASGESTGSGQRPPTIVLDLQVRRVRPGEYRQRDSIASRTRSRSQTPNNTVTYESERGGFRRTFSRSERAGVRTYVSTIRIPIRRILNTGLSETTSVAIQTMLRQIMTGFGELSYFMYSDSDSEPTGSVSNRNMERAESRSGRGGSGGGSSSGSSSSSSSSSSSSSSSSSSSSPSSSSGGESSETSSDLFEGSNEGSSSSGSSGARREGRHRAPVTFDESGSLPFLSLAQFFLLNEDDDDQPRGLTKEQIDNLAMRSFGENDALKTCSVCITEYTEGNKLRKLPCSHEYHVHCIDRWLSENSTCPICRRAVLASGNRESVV
Particulars: chain shown with the change; ZC4H2-myc + RLIM-FLAG, MG132 +; parent: 1.00.

As to “ZC4H2 (wild type; mapping and mutation co-IPs) (from UniProt Q9NQZ6) A201S”, the ratio to parent in test [1] was determined as 0.13.

B1: full-length RLIM protein (wild type; mapping and mutation co-IPs), Q9NVW2 R599C (protein)
chain: T2 chain with R599C
As for B1, the ratio to parent in test [2] was 0.65.

B2: full-length RLIM protein (wild type; mapping and mutation co-IPs), Q9NVW2 R611C (protein)
chain: T2 chain with R611C
With B2, in test [2], the ratio to parent stood at 0.17.

B3: full-length RLIM protein (wild type; mapping and mutation co-IPs), Q9NVW2 P77L (protein)
chain: T2 chain with P77L
For B3, the ratio to parent in test [2] was 0.95.

B4: full-length RLIM protein (wild type; mapping and mutation co-IPs), Q9NVW2 P587R (protein)
chain: T2 chain with P587R
On to B4, for which the ratio to parent in test [2] was determined as 0.72.

B5: full-length RLIM protein (wild type; mapping and mutation co-IPs), Q9NVW2 Y356C (protein)
chain: T2 chain with Y356C
Consider B5, for which, in test [2], the ratio to parent amounted to 0.91.

B6: full-length RLIM protein (wild type; mapping and mutation co-IPs), Q9NVW2 R365C (protein)
chain: T2 chain with R365C
Consider B6, for which the ratio to parent in test [2] is 1.02.

B7: full-length RLIM protein (wild type; mapping and mutation co-IPs), Q9NVW2 D598N (protein)
chain: T2 chain with D598N
In the case of B7, the ratio to parent in test [2] was 0.23.

B8: full-length RLIM protein (wild type; mapping and mutation co-IPs), Q9NVW2 R387C (protein)
chain: T2 chain with R387C
As to B8, in test [2], the ratio to parent came to 0.18.

B9: ZC4H2 (wild type; mapping and mutation co-IPs), Q9NQZ6 A200V (protein)
chain: T1 chain with A200V
As to B9, the ratio to parent in test [3] worked out at 0.18.

B10: ZC4H2 (wild type; mapping and mutation co-IPs), Q9NQZ6 R213W (protein)
chain: T1 chain with R213W
B10: in test [3], the ratio to parent came to 0.19.

B11: ZC4H2 (wild type; mapping and mutation co-IPs), Q9NQZ6 R198Q (protein)
chain: T1 chain with R198Q
As to B11, in test [3], the ratio to parent amounted to 0.15.

B12: ZC4H2 (wild type; mapping and mutation co-IPs), Q9NQZ6 V63L (protein)
chain: T1 chain with V63L
With B12, the ratio to parent in test [3] was found to be 1.2.
